Laboratory results taken from IntAct's records for PubMed 9520446.

B1: Mitogen-activated protein kinase kinase kinase 14 (Homo sapiens), Q99558 (parent)
chain: MAVMEMACPGAPGSAVGQQKELPKAKEKTPPLGKKQSSVYKLEAVEKSPVFCGKWEILNDVITKGTAKEGSEAGPAAISIIAQAECENSQEFSPTFSERIFIAGSKQYSQSESLDQIPNNVAHATEGKMARVCWKGKRRSKARKKRKKKSSKSLAHAGVALAKPLPRTPEQESCTIPVQEDESPLGAPYVRNTPQFTKPLKEPGLGQLCFKQLGEGLRPALPRSELHKLISPLQCLNHVWKLHHPQDGGPLPLPTHPFPYSRLPHPFPFHPLQPWKPHPLESFLGKLACVDSQKPLPDPHLSKLACVDSPKPLPGPHLEPSCLSRGAHEKFSVEEYLVHALQGSVSSGQAHSLTSLAKTWAARGSRSREPSPKTEDNEGVLLTEKLKPVDYEYREEVHWATHQLRLGRGSFGEVHRMEDKQTGFQCAVKKVRLEVFRAEELMACAGLTSPRIVPLYGAVREGPWVNIFMELLEGGSLGQLVKEQGCLPEDRALYYLGQALEGLEYLHSRRILHGDVKADNVLLSSDGSHAALCDFGHAVCLQPDGLGKSLLTGDYIPGTETHMAPEVVLGRSCDAKVDVWSSCCMMLHMLNGCHPWTQFFRGPLCLKIASEPPPVREIPPSCAPLTAQAIQEGLRKEPIHRVSAAELGGKVNRALQQVGGLKSPWRGEYKEPRHPPPNQANYHQTLHAQPRELSPRAPGPRPAEETTGRAPKLQPPLPPEPPEPNKSPPLTLSKEESGMWEPLPLSSLEPAPARNPSSPERKATVPEQELQQLEIELFLNSLSQPFSLEEQEQILSCLSIDSLSLSDDSEKNPSKASQSSRDTLSSGVHSWSSQAEARSSSWNMVLARGRPTDTPSYFNGVKVQIQSLNGEHLHIREFHRVKVGDIATGISSQIPAAAFSLVTKDGQPVRYDMEVPDSGIDLQCTLAPDGSFAWSWRVKHGQLENRP
partner: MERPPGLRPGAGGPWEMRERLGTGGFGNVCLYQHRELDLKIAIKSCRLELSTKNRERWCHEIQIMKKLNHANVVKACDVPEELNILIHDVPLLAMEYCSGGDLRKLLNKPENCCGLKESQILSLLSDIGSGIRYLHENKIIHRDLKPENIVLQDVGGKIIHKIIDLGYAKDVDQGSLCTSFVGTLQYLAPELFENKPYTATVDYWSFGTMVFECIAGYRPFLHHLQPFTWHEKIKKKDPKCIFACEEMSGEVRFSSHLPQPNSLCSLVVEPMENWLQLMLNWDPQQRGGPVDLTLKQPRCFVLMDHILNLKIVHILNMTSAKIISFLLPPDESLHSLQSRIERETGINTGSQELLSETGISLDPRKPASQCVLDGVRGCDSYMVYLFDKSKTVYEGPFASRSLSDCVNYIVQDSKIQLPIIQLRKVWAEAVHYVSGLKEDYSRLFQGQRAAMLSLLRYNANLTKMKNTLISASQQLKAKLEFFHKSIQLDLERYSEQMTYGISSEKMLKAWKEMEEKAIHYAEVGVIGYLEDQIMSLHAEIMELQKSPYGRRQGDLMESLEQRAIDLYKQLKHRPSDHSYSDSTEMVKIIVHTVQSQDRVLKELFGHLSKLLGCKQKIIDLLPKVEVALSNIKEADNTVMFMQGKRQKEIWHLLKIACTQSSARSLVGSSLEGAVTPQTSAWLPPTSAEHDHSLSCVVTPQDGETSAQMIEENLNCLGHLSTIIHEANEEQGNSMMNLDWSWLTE
B2: Mitogen-activated protein kinase kinase kinase 14 (Homo sapiens), Q99558 (parent)
chain: B1 chain
partner: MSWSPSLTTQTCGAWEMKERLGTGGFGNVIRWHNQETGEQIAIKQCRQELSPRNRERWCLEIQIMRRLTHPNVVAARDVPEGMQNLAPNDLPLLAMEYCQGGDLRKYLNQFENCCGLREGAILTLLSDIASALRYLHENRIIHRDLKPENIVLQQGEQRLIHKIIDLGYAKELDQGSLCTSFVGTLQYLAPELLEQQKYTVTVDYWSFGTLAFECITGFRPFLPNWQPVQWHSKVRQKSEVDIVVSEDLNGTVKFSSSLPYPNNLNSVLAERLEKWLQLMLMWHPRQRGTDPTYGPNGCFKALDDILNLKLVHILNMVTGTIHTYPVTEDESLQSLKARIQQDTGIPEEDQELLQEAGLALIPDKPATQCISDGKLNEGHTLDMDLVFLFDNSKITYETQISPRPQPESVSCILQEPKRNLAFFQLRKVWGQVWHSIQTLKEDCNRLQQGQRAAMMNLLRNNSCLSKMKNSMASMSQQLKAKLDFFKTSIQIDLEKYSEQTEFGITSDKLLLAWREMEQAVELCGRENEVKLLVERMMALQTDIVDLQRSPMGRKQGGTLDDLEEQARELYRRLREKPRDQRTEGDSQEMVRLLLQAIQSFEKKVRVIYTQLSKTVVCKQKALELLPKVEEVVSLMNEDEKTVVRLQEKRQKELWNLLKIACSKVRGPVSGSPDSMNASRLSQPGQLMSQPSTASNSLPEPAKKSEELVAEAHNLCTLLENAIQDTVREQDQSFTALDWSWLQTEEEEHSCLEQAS
B3: Inhibitor of nuclear factor kappa-B kinase subunit beta (Homo sapiens), O14920 (parent)
chain: B2 partner
B4: Inhibitor of nuclear factor kappa-B kinase subunit alpha (Homo sapiens), O15111 (parent)
chain: B1 partner

Variants of: B1
Settings: with ikka_human CHUK, O15111

Row | effect of a mutation on the interaction | Variant
1 | disrupting interaction | K429A;K430A

Variants of: B2
Settings: with ikkb_human IKBKB

Row | effect of a mutation on the interaction | Variant
2 | disrupting interaction | K429A;K430A

Variants of: B3
Settings: with ikba_human NFKBIA

Row | effect of a mutation on the interaction | Variant
3 | decreasing interaction | K44A

Variants of: B4
Settings: with ikba_human NFKBIA

Row | effect of a mutation on the interaction | Variant
4 | disrupting interaction | K44A
5 | decreasing interaction | S176A

Variants of: B4
Settings: with MAP3K14, Q99558

Row | effect of a mutation on the interaction | Variant
6 | decreasing interaction | S176A

Variants of: B4
Settings: with ikba_human NFKBIA
Remark: another data set of the same source

Row | effect of a mutation on the interaction | Variant
7 | increasing interaction | S176E
